Where a chain is given by its changes, count along the chain named.
B1: CD71-binding FN3 domain SEQ ID NO 369 (designed binder)
chain: MLPAPKNLVVSRVTEDSARLSWTAPDAAFDSFFIGYLEPQPPGEAIVLWVPGSERSYDLTGLKPGTEYNVTIQGVKGGFPSHPLVAKSTT
B2: CD71-binding FN3 domain SEQ ID NO 382 (designed binder)
chain: B1 chain with V47E, W49Y, H82D, V85E, K87D, S88F
B3: CD71-binding FN3 domain SEQ ID NO 383 (designed binder)
chain: B1 chain with V47D, H82L, V85D, K87V, S88F
B4: CD71-binding FN3 domain SEQ ID NO 356 (designed binder)
chain: B1 chain with V13I, V47T, W49L, G52A, V85Q, K87Q, S88F
B5: CD71-binding FN3 domain SEQ ID NO 353 (designed binder)
chain: B1 chain with V47G, W49F, H82N, V85E, K87R, S88F
B6: CD71-binding FN3 domain SEQ ID NO 360 (designed binder)
chain: B1 chain with V47S, W49Y, V85L, K87V, S88F
B7: CD71-binding FN3 domain SEQ ID NO 355 (designed binder)
chain: B1 chain with V47H, W49Y, V85Y, K87D, S88F
B8: CD71-binding FN3 domain SEQ ID NO 346 (designed binder)
chain: B1 chain with V47S, W49F, H82D, V85N, K87T, S88F, T89N
B9: CD71-binding FN3 domain SEQ ID NO 350 (designed binder)
chain: B1 chain with V47S, W49F, H82M, K87Q, S88F
B10: CD71-binding FN3 domain SEQ ID NO 372 (designed binder)
chain: B1 chain with V47N, W49L, H82L, V85L, K87E, S88F
B11: CD71-binding FN3 domain SEQ ID NO 373 (designed binder)
chain: B1 chain with V47S, W49F, H82D, K87S, S88F
B12: CD71-binding FN3 domain SEQ ID NO 398 (designed binder)
chain: B1 chain with V47Y, W49T, H82K, V85T, K87N, S88F
B13: CD71-binding FN3 domain SEQ ID NO 351 (designed binder)
chain: B1 chain with V47T, W49A, H82N, V85L, K87A, S88F
B14: CD71-binding FN3 domain SEQ ID NO 349 (designed binder)
chain: B1 chain with V47E, W49Y, H82E, V85I, K87H, S88F
B15: CD71-binding FN3 domain SEQ ID NO 389 (designed binder)
chain: B1 chain with V47H, W49L, H82M, V85S, K87I, S88V
B16: CD71-binding FN3 domain SEQ ID NO 394 (designed binder)
chain: B1 chain with V47Y, W49L, H82T, V85E, K87S, S88F
B17: CD71-binding FN3 domain SEQ ID NO 393 (designed binder)
chain: B1 chain with V47G, W49F, H82L, V85Q, K87H, S88F
B18: CD71-binding FN3 domain SEQ ID NO 396 (designed binder)
chain: B1 chain with V47Y, W49T, H82M, V85S, K87I, S88F
B19: CD71-binding FN3 domain SEQ ID NO 366 (designed binder)
chain: B1 chain with V47D, H82N, V85K, K87Q, S88F
B20: CD71-binding FN3 domain SEQ ID NO 365 (designed binder)
chain: B1 chain with S88F

What follows are binders tested against T1, human CD71 extracellular domain (human, UniProt P02786 89-760) (assay: primary ELISA; also: test concentration or dose not given here).
T1 construct: also called hCD71; CD71-ECD
T1 sequence (P02786 89-760): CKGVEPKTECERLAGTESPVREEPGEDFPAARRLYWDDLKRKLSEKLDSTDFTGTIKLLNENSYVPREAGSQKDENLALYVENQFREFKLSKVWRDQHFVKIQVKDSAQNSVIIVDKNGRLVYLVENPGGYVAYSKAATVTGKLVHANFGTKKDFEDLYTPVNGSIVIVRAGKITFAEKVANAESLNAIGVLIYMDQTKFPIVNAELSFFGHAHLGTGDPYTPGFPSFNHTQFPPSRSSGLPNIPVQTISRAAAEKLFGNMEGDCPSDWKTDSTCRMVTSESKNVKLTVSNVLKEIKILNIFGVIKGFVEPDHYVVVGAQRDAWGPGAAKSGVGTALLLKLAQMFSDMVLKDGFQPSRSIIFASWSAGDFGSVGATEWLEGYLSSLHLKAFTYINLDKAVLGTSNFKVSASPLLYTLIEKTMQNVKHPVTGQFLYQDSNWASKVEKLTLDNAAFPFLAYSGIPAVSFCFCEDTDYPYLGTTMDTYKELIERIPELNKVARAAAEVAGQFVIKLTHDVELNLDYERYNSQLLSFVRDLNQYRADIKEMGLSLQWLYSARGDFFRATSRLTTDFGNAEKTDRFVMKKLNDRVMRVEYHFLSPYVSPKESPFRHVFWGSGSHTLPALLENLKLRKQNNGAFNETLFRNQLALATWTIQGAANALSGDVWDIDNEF
For B1, the RLU was 3.82e+06 RLU.
B2 was tested, and the RLU was 2.01e+06 RLU.
B3 showed an RLU of 1.85e+06 RLU.
Work on B4 yielded an RLU of 3.92e+06 RLU.
B5 showed an RLU of 4.54e+06 RLU.
B6 gave an RLU of 5.78e+06 RLU.
With B7 the RLU was 3.58e+06 RLU.
B8 was tested, and the RLU was 5e+06 RLU.
B9 was tested, and the RLU was 5.96e+06 RLU.
For B10, the RLU was 2.8e+06 RLU.
B11 showed an RLU of 4.86e+06 RLU.
For B12, the RLU was 2.12e+06 RLU.
For B13, the RLU was 2.67e+06 RLU.
For B14, the RLU was 6.37e+06 RLU.
B15 gave an RLU of 5.82e+06 RLU.
In the case of B16, the RLU is reported as 2.86e+06 RLU.
In the case of B17, the RLU is reported as 4.39e+06 RLU.
Binder B18 has an RLU of 2.23e+06 RLU.
B19 was tested, and the RLU was 2.29e+06 RLU.
With B20 the RLU was 6.85e+06 RLU.

The binders below were run against T2, human apical domain of CD71 (human, UniProt P02786 189-383, limits assumed) (assay: primary ELISA; also: test concentration or dose not given here).
T2 construct: domain: apical domain
T2 sequence (P02786 189-383 limits assumed): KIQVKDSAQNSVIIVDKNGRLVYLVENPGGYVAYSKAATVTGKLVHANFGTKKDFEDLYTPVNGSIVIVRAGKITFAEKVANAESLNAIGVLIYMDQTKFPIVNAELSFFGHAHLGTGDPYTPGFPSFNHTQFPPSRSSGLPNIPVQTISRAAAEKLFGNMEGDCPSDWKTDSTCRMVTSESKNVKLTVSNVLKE
With B1 the RLU was 3.66e+06 RLU.
With B2 the RLU was 2.55e+06 RLU.
B3 was tested, and the RLU was 4.33e+06 RLU.
With B4 the RLU was 6.37e+06 RLU.
With B5 the RLU was 6.87e+06 RLU.
In the case of B6, the RLU is reported as 5.37e+06 RLU.
Work on B7 yielded an RLU of 5.91e+06 RLU.
In the case of B8, the RLU is reported as 6.82e+06 RLU.
In the case of B9, the RLU is reported as 6.7e+06 RLU.
Binder B10 has an RLU of 4.63e+06 RLU.
B11 showed an RLU of 5.73e+06 RLU.
For B12, the RLU was 2.07e+06 RLU.
B13 showed an RLU of 2.87e+06 RLU.
For B14, the RLU was 6.87e+06 RLU.
Binder B15 has an RLU of 6.19e+06 RLU.
For B16, the RLU was 5.66e+06 RLU.
Work on B17 yielded an RLU of 6.09e+06 RLU.
In the case of B18, the RLU is reported as 2.47e+06 RLU.
Binder B19 has an RLU of 3.37e+06 RLU.
Binder B20 has an RLU of 6.7e+06 RLU.

These binders were tested against T1, human CD71 extracellular domain (assay: primary ELISA; signal over HSA control). As to RLU: test concentration or dose not given here.
With B1 the “hCD71:HSA” value was 172 ratio.
In the case of B2, the “hCD71:HSA” value is reported as 160 ratio.
In the case of B3, the “hCD71:HSA” value is reported as 94 ratio.
For B4, the “hCD71:HSA” value was 207 ratio.
For B5, the “hCD71:HSA” value was 53 ratio.
B6 was tested, and the “hCD71:HSA” value was 155 ratio.
For B7, the “hCD71:HSA” value was 257 ratio.
With B8 the “hCD71:HSA” value was 61 ratio.
With B9 the “hCD71:HSA” value was 127 ratio.
With B10 the “hCD71:HSA” value was 124 ratio.
For B11, the “hCD71:HSA” value was 98 ratio.
With B12 the “hCD71:HSA” value was 132 ratio.
B13 was tested, and the “hCD71:HSA” value was 322 ratio.
For B14, the “hCD71:HSA” value was 22 ratio.
With B15 the “hCD71:HSA” value was 121 ratio.
With B16 the “hCD71:HSA” value was 218 ratio.
In the case of B17, the “hCD71:HSA” value is reported as 42 ratio.
For B18, the “hCD71:HSA” value was 165 ratio.
With B19 the “hCD71:HSA” value was 213 ratio.
B20 was tested, and the “hCD71:HSA” value was 67 ratio.

The binders below were run against T2, human apical domain of CD71 (assay: primary ELISA; signal over HSA control). As to RLU: test concentration or dose not given here.
With B1 the “Apical domain:HSA” value was 165 ratio.
With B2 the “Apical domain:HSA” value was 203 ratio.
With B3 the “Apical domain:HSA” value was 220 ratio.
For B4, the “Apical domain:HSA” value was 337 ratio.
For B5, the “Apical domain:HSA” value was 80 ratio.
For B6, the “Apical domain:HSA” value was 144 ratio.
With B7 the “Apical domain:HSA” value was 424 ratio.
In the case of B8, the “Apical domain:HSA” value is reported as 83 ratio.
In the case of B9, the “Apical domain:HSA” value is reported as 143 ratio.
For B10, the “Apical domain:HSA” value was 205 ratio.
B11 was tested, and the “Apical domain:HSA” value was 115 ratio.
B12 was tested, and the “Apical domain:HSA” value was 129 ratio.
In the case of B13, the “Apical domain:HSA” value is reported as 345 ratio.
In the case of B14, the “Apical domain:HSA” value is reported as 23 ratio.
B15 was tested, and the “Apical domain:HSA” value was 129 ratio.
For B16, the “Apical domain:HSA” value was 430 ratio.
B17 was tested, and the “Apical domain:HSA” value was 58 ratio.
B18 was tested, and the “Apical domain:HSA” value was 183 ratio.
B19 was tested, and the “Apical domain:HSA” value was 313 ratio.
With B20 the “Apical domain:HSA” value was 65 ratio.

Reference: US20260151494A1 (ARO BIOTHERAPEUTICS, published 2026)
